Measured values reported in patent US20180073039A1 (SINAI HEALTH SYSTEM, published 2018).

What was measured:
[1] = tested on: ubiquitylated HA-PALB2 (1-103) (in vitro ubiquitylated by CRL3-KEAP1)
HA-PALB2 (1-103) = tested on: T1, HA-PALB2 (1-103)
T1 sequence: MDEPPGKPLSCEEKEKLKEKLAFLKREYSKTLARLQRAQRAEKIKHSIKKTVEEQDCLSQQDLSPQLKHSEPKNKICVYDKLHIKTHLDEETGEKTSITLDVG

[2] = target: T2, BRCA2 (Homo sapiens breast cancer 2) (human, UniProt P51587 1-3418); assay: PALB2 immunoprecipitation from 293T extracts synchronized in S or G1, immunoblot
T2 construct: Endogenous protein in 293T extracts, detected by immunoblot

“glutathione S-transferase (GST)-USP11 (Sus scrofa (pig) USP11)” was tested, and the “deubiquitylation reaction, immunoblot” value [1] was “recombinant USP11 can directly de-ubiquitylate PALB2 (1-103)”.

With “recombinant CRL3-KEAP1 (neddylated CUL3/RBX1 with GST-mKEAP1)” the “in vitro ubiquylation of HA-PALB2 (1-103), immunoblot and mass spectrometry” value (HA-PALB2 (1-103)) was “ubiquitylation of the N-terminus of PALB2 (residues 1-103; fused to a haemagglutinin (HA) epitope tag) could be readily reconstituted by recombinant CRL3-KEAP1”.

B1: PALB2 (partner and localizer of BRCA2) (other)
chain: MDEPPGKPLSCEEKEKLKEKLAFLKREYSKTLARLQRAQRAEKIKHSIKKTVEEQDCLSQQDLSPQLKHSEPKNKICVYDKLHIKTHLDEETGEKTSITLDVGPESFNPGDGPGGLPIQRTDDTQEHFPHRVSDPSGEQKQKLPSRRKKQQKRTFISQERDCVFGTDSLRLSGKRLKEQEEISSKNPARSPVTEIRTHLLSLKSELPDSPEPVTEINEDSVLIPPTAQPEKGVDTFLRRPNFTRATTVPLQTLSDSGSSQHLEHIPPKGSSELTTHDLKNIRFTSPVSLEAQGKKMTVSTDNLLVNKAISKSGQLPTSSNLEANISCSLNELTYNNLPANENQNLKEQNQTEKSLKSPSDTLDGRNENLQESEILSQPKSLSLEATSPLSAEKHSCTVPEGLLFPAEYYVRTTRSMSNCQRKVAVEAVIQSHLDVKKKGFKNKNKDASKNLNLSNEETDQSEIRMSGTCTGQPSSRTSQKLLSLTKVSSPAGPTEDNDLSRKAVAQAPGRRYTGKRKSACTPASDHCEPLLPTSSLSIVNRSKEEVTSHKYQHEKLFIQVKGKKSRHQKEDSLSWSNSAYLSLDDDAFTAPFHRDGMLSLKQLLSFLSITDFQLPDEDFGPLKLEKVKSCSEKPVEPFESKMFGERHLKEGSCIFPEELSPKRMDTEMEDLEEDLIVLPGKSHPKRPNSQSQHTKTGLSSSILLYTPLNTVAPDDNDRPTTDMCSPAFPILGTTPAFGPQGSYEKASTEVAGRTCCTPQLAHLKDSVCLASDTKQFDSSGSPAKPHTTLQVSGRQGQPTCDCDSVPPGTPPPIESFTFKENQLCRNTCQELHKHSVEQTETAELPASDSINPGNLQLVSELKNPSGSCSVDVSAMFWERAGCKEPCIITACEDVVSLWKALDAWQWEKLYTWHFAEVPVLQIVPVPDVYNLVCVALGNLEIREIRALFCSSDDESEKQVLLKSGNIKAVLGLTKRRLVSSSGTLSDQQVEVMTFAEDGGGKENQFLMPPEETILTFAEVQGMQEALLGTTIMNNIVIWNLKTGQLLKKMHIDDSYQASVCHKAYSEMGLLFIVLSHPCAKESESLRSPVFQLIVINPKTTLSVGVMLYCLPPGQAGRFLEGDVKDHCAAAILTSGTIAIWDLLLGQCTALLPPVSDQHWSFVKWSGTDSHLLAGQKDGNIFVYHYS
notes: Endogenous protein in extracts of human 293T cells, immunoprecipitated with rabbit anti-PALB2 or detected by immunoblot; NCBI NP_078951.2
B1: binds [2].
